In this assay the target is MRE11 (human) (UniProt P49959). In words: cryo-EM structure.
Sequence of MRE11 (human) (P49959 whole entry): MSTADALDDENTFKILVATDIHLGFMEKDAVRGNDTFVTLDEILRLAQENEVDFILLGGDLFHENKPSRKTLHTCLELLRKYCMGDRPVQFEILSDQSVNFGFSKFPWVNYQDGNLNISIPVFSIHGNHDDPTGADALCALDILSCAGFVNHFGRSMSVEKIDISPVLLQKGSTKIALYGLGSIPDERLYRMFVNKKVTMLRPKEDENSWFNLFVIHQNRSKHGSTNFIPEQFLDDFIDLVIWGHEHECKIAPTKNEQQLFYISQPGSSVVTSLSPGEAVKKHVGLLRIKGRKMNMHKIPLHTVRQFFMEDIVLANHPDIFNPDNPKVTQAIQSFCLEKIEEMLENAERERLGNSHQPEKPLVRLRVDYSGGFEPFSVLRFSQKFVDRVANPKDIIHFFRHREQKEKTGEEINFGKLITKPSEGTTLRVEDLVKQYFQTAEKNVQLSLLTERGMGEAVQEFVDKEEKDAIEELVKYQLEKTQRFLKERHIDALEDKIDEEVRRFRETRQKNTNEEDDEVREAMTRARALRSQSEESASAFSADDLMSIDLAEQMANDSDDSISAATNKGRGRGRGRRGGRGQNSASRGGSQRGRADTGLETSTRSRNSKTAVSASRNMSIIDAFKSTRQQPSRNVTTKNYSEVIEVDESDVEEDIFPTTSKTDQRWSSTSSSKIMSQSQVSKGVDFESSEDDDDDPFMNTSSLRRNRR

Sequence of NBS1 (O60934 whole entry): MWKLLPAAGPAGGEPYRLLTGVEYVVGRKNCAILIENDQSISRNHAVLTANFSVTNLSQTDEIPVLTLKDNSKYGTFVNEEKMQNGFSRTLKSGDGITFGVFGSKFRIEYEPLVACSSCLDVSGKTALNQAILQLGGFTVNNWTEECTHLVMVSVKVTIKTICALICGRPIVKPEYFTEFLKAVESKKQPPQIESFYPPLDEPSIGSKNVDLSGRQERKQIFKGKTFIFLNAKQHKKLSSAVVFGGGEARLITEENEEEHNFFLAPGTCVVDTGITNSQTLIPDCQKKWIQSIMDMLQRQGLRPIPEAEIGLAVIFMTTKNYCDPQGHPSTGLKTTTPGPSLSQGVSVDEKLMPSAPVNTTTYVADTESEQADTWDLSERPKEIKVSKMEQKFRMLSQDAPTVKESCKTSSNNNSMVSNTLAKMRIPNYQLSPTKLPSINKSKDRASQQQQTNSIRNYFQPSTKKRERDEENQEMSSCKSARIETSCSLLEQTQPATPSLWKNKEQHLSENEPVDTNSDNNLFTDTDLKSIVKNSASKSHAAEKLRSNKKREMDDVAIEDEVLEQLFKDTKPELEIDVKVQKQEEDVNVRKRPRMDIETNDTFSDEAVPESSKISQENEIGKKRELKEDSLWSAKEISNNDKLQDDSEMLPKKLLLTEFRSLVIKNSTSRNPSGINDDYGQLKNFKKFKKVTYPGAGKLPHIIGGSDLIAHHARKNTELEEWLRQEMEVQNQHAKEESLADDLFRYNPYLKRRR
Sequence of MRE11 (P49959 whole entry): as the sequence (P49959 whole entry) above

“MRE11 (from UniProt P49959) (natural protein)”: the stoichiometry N was determined as 2. As to “NBS1 (from UniProt O60934) (natural protein)”, the stoichiometry N (NBS1 per MRE11 dimer) came to 1.

The record behind these values is publication doi:10.1101/2025.03.14.643254.
